Measurements reported in the supplement of paper PMC5998384.

Key:
HeLa Kyoto [1] = assay: solubility change mitosis vs G1/S (difference of NP-40 vs SDS log2 ratios) (log2 ratio difference); higher = more soluble in mitosis
HeLa Kyoto [2] = assay: solubility in G1/S (NP-40 vs SDS abundance) (log2 ratio); higher = more soluble; conditions: cell cycle stage: G1/S
HeLa Kyoto [3] = assay: thermal stability score vs G1/S (z-score of summed log2 fold changes over temperatures); higher = more thermally stable than in G1/S
[4] = cell cycle stage: early G1 (4.5 h after nocodazole release)
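Wherever solubility change mitosis vs G1/S (difference of NP-40 vs SDS log2 ratios) is given: synchronized HeLa Kyoto cells (double thymidine block for G1/S, nocodazole release for mitosis), protein amounts in NP-40 versus SDS lysates quantified by mass spectrometry, three biological replicates.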
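Wherever solubility in G1/S (NP-40 vs SDS abundance) is given: HeLa Kyoto cells arrested at G1/S by double thymidine block, proteins quantified by TMT10plex mass spectrometry in mild NP-40 versus SDS extracts, three biological replicates.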
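Wherever thermal stability score vs G1/S (z-score of summed log2 fold changes over temperatures) is given: synchronized HeLa Kyoto cells, proteins quantified by TMT10plex mass spectrometry, three biological replicates, mitosis taken 0.5 h after nocodazole release, G1/S directly after double thymidine block.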

MSQGSPGDWAPLDPTPGPPASPNPFVHELHLSRLQRVKFCLLGALLAPIRVLLAFIVLFLLWPFAWLQVAGLSEEQLQEPITGWRKTVCHNGVLGLSRLLFFLLGFLRIRVRGQRASRLQAPVLVAAPHSTFFDPIVLLPCDLPKVVSRAENLSVPVIGALLRFNQAILVSRHDPASRRRVVEEVRRRATSGGKWPQVLFFPEGTCSNKKALLKFKPGAFIAGVPVQPVLIRYPNSLDTTSWAWRGPGVLKVLWLTASQPCSIVDVEFLPVYHPSPEESRDPTLYANNVQRVMAQALGIPATECEFVGSLPVIVVGRLKVALEPQLWELGKVLRKAGLSAGYVDAGAEPGRSRMISQEEFARQLQLSDPQTVAGAFGYFQQDTKGLVDFRDVALALAALDGGRSLEELTRLAFELFAEEQAEGPNRLLYKDGFSTILHLLLGSPHPAATALHAELCQAGSSQGLSLCQFQNFSLHDPLYGKLFSTYLRPPHTSRGTSQTPNASSPGNPTALANGTVQAPKQKGD [LPCAT4]
solubility change mitosis (log2) (HeLa Kyoto [1]): -0.122 | solubility in G1/S (log2) (HeLa Kyoto [2]): -0.0461 | thermal stability score (HeLa Kyoto [3]; [4]): 0.358 | thermal stability score (HeLa Kyoto [3]; cell cycle stage: mitosis): 0.234

MALVSADSRIAELLTELHQLIKQTQEERSRSEHNLVNIQKTHERMQTENKISPYYRTKLRGLYTTAKADAEAECNILRKALDKIAEIKSLLEERRIAAKIAGLYNDSEPPRKTMRRGVLMTLLQQSAMTLPLWIGKPGDKPPPLCGAIPASGDYVARPGDKVAARVKAVDGDEQWILAEVVSYSHATNKYEVDDIDEEGKERHTLSRRRVIPLPQWKANPETDPEALFQKEQLVLALYPQTTCFYRALIHAPPQRPQDDYSVLFEDTSYADGYSPPLNVAQRYVVACKEPKKK [SGF29]
solubility change mitosis (log2) (HeLa Kyoto [1]): 0.314 | solubility in G1/S (log2) (HeLa Kyoto [2]): 0.435 | thermal stability score (HeLa Kyoto [3]; [4]): -0.0915 | thermal stability score (HeLa Kyoto [3]; cell cycle stage: mitosis): -0.207

MDAWVRFSAQSQARERLCRAAQYACSLLGHALQRHGASPELQKQIRQLESHLSLGRKLLRLGNSADALESAKRAVHLSDVVLRFCITVSHLNRALYFACDNVLWAGKSGLAPRVDQEKWAQRSFRYYLFSLIMNLSRDAYEIRLLMEQESSACSRRLKGSGGGVPGGSETGGLGGPGTPGGGLPQLALKLRLQVLLLARVLRGHPPLLLDVVRNACDLFIPLDKLGLWRCGPGIVGLCGLVSSILSILTLIYPWLRLKP [PEX11B]
solubility change mitosis (log2) (HeLa Kyoto [1]): 0.18 | solubility in G1/S (log2) (HeLa Kyoto [2]): -0.779 | thermal stability score (HeLa Kyoto [3]; [4]): 0.106 | thermal stability score (HeLa Kyoto [3]; cell cycle stage: mitosis): 0.142

MAPSLWKGLVGIGLFALAHAAFSAAQHRSYMRLTEKEDESLPIDIVLQTLLAFAVTCYGIVHIAGEFKDMDATSELKNKTFDTLRNHPSFYVFNHRGRVLFRPSDTANSSNQDALSSNTSLKLRKLESLRR [MMGT1]
solubility change mitosis (log2) (HeLa Kyoto [1]): -0.109 | solubility in G1/S (log2) (HeLa Kyoto [2]): -0.125 | thermal stability score (HeLa Kyoto [3]; [4]): -0.869 | thermal stability score (HeLa Kyoto [3]; cell cycle stage: mitosis): -1.57

MDRAPTEQNVKLSAEVEPFIPQKKSPDTFMIPMALPNDNGSVSGVEPTPIPSYLITCYPFVQENQSNRQFPLYNNDIRWQQPNPNPTGPYFAYPIISAQPPVSTEYTYYQLMPAPCAQVMGFYHPFPTPYSNTFQAANTVNAITTECTERPSQLGQVFPLSSHRSRNSNRGSVVPKQQLLQQHIKSKRPLVKNVATQKETNAAGPDSRSKIVLLVDASQQTDFPSDIANKSLSETTATMLWKSKGRRRRASHPTAESSSEQGASEADIDSDSGYCSPKHSNNQPAAGALRNPDSGTMNHVESSMCAGGVNWSNVTCQATQKKPWMEKNQTFSRGGRQTEQRNNSQVGFRCRGHSTSSERRQNLQKRPDNKHLSSSQSHRSDPNSESLYFEDEDGFQELNENGNAKDENIQQKLSSKVLDDLPENSPINIVQTPIPITTSVPKRAKSQKKKALAAALATAQEYSEISMEQKKLQEALSKAAGKKNKTPVQLDLGDMLAALEKQQQAMKARQITNTRPLSYTVVTAASFHTKDSTNRKPLTKSQPCLTSFNSVDIASSKAKKGKEKEIAKLKRPTALKKVILKEREEKKGRLTVDHNLLGSEEPTEMHLDFIDDLPQEIVSQEDTGLSMPSDTSLSPASQNSPYCMTPVSQGSPASSGIGSPMASSTITKIHSKRFREYCNQVLCKEIDECVTLLLQELVSFQERIYQKDPVRAKARRRLVMGLREVTKHMKLNKIKCVIISPNCEKIQSKGGLDEALYNVIAMAREQEIPFVFALGRKALGRCVNKLVPVSVVGIFNYFGAESLFNKLVELTEEARKAYKDMVAAMEQEQAEEALKNVKKVPHHMGHSRNPSAASAISFCSVISEPISEVNEKEYETNWRNMVETSDGLEASENEKEVSCKHSTSEKPSKLPFDTPPIGKQPSLVATGSTTSATSAGKSTASDKEEVKPDDLEWASQQSTETGSLDGSCRDLLNSSITSTTSTLVPGMLEEEEDEDEEEEEDYTHEPISVEVQLNSRIESWVSETQRTMETLQLGKTLNGSEEDNVEQSGEEEAEAPEVLEPGMDSEAWTADQQASPGQQKSSNCSSLNKEHSDSNYTTQTT [SECISBP2L]
solubility change mitosis (log2) (HeLa Kyoto [1]): 0.0796 | solubility in G1/S (log2) (HeLa Kyoto [2]): -0.226 | thermal stability score (HeLa Kyoto [3]; [4]): 1.54 | thermal stability score (HeLa Kyoto [3]; cell cycle stage: mitosis): 2.5

MEEGAPRQPGPSQWPPEDEKEVIRRAIQKELKIKEGVENLRRVATDRRHLGHVQQLLRSSNRRLEQLHGELRELHARILLPGPGPGPAEPVASGPRPWAEQLRARHLEALRRQLHVELKVKQGAENMTHTCASGTPKERKLLAAAQQMLRDSQLKVALLRMKISSLEASGSPEPGPELLAEELQHRLHVEAAVAEGAKNVVKLLSSRRTQDRKALAEAQAQLQESSQKLDLLRLALEQLLEQLPPAHPLRSRVTRELRAAVPGYPQPSGTPVKPTALTGTLQVRLLGCEQLLTAVPGRSPAAALASSPSEGWLRTKAKHQRGRGELASEVLAVLKVDNRVVGQTGWGQVAEQSWDQTFVIPLERARELEIGVHWRDWRQLCGVAFLRLEDFLDNACHQLSLSLVPQGLLFAQVTFCDPVIERRPRLQRQERIFSKRRGQDFLRASQMNLGMAAWGRLVMNLLPPCSSPSTISPPKGCPRTPTTLREASDPATPSNFLPKKTPLGEEMTPPPKPPRLYLPQEPTSEETPRTKRPHMEPRTRRGPSPPASPTRKPPRLQDFRCLAVLGRGHFGKVLLVQFKGTGKYYAIKALKKQEVLSRDEIESLYCEKRILEAVGCTGHPFLLSLLACFQTSSHACFVTEFVPGGDLMMQIHEDVFPEPQARFYVACVVLGLQFLHEKKIIYRDLKLDNLLLDAQGFLKIADFGLCKEGIGFGDRTSTFCGTPEFLAPEVLTQEAYTRAVDWWGLGVLLYEMLVGECPFPGDTEEEVFDCIVNMDAPYPGFLSVQGLEFIQKLLQKCPEKRLGAGEQDAEEIKVQPFFRTTNWQALLARTIQPPFVPTLCGPADLRYFEGEFTGLPPALTPPAPHSLLTARQQAAFRDFDFVSERFLEP [PKN3]
solubility change mitosis (log2) (HeLa Kyoto [1]): 0.0781 | solubility in G1/S (log2) (HeLa Kyoto [2]): -0.177 | thermal stability score (HeLa Kyoto [3]; [4]): -0.36 | thermal stability score (HeLa Kyoto [3]; cell cycle stage: mitosis): -0.411

MSSACDAGDHYPLHLLVWKNDYRQLEKELQGQNVEAVDPRGRTLLHLAVSLGHLESARVLLRHKADVTKENRQGWTVLHEAVSTGDPEMVYTVLQHRDYHNTSMALEGVPELLQKILEAPDFYVQMKWEFTSWVPLVSRICPNDVCRIWKSGAKLRVDITLLGFENMSWIRGRRSFIFKGEDNWAELMEVNHDDKVVTTERFDLSQEMERLTLDLMKPKSREVERRLTSPVINTSLDTKNIAFERTKSGFWGWRTDKAEVVNGYEAKVYTVNNVNVITKIRTEHLTEEEKKRYKADRNPLESLLGTVEHQFGAQGDLTTECATANNPTAITPDEYFNEEFDLKDRDIGRPKELTIRTQKFKAMLWMCEEFPLSLVEQVIPIIDLMARTSAHFARLRDFIKLEFPPGFPVKIEIPLFHVLNARITFGNVNGCSTAEESVSQNVEGTQADSASHITNFEVDQSVFEIPESYYVQDNGRNVHLQDEDYEIMQFAIQQSLLESSRSQELSGPASNGGISQTNTYDAQYERAIQESLLTSTEGLCPSALSETSRFDNDLQLAMELSAKELEEWELRLQEEEAELQQVLQLSLTDK [ANKRD13A]
solubility change mitosis (log2) (HeLa Kyoto [1]): -0.0203 | solubility in G1/S (log2) (HeLa Kyoto [2]): -0.139 | thermal stability score (HeLa Kyoto [3]; [4]): 0.86 | thermal stability score (HeLa Kyoto [3]; cell cycle stage: mitosis): 0.416

MWDQRLVRLALLQHLRAFYGIKVKGVRGQCDRRRHETAATEIGGKIFGVPFNALPHSAVPEYGHIPSFLVDACTSLEDHIHTEGLFRKSGSVIRLKALKNKVDHGEGCLSSAPPCDIAGLLKQFFRELPEPILPADLHEALLKAQQLGTEEKNKATLLLSCLLADHTVHVLRYFFNFLRNVSLRSSENKMDSSNLAVIFAPNLLQTSEGHEKMSSNTEKKLRLQAAVVQTLIDYASDIGRVPDFILEKIPAMLGIDGLCATPSLEGFEEGEYETPGEYKRKRRQSVGDFVSGALNKFKPNRTPSITPQEERIAQLSESPVILTPNAKRTLPVDSSHGFSSKKRKSIKHNFNFELLPSNLFNSSSTPVSVHIDTSSEGSSQSSLSPVLIGGNHLITAGVPRRSKRIAGKKVCRVESGKAGCFSPKISHKEKVRRSLRLKFNLGKNGREVNGCSGVNRYESVGWRLANQQSLKNRIESVKTGLLFSPDVDEKLPKKGSEKISKSEETLLTPERLVGTNYRMSWTGPNNSSFQEVDANEASSMVENLEVENSLEPDIMVEKSPATSCELTPSNLNNKHNSNITSSPLSGDENNMTKETLVKVQKAFSESGSNLHALMNQRQSSVTNVGKVKLTEPSYLEDSPEENLFETNDLTIVESKEKYEHHTGKGEKCFSERDFSPLQTQTFNRETTIKCYSTQMKMEHEKDIHSNMPKDYLSKQEFSSDEEIKKQQSPKDKLNNKLKENENMMEGNLPKCAAHSKDEARSSFSQQSTCVVTNLSKPRPMRIAKQQSLETCEKTVSESSQMTEHRKVSDHIQWFNKLSLNEPNRIKVKSPLKFQRTPVRQSVRRINSLLEYSRQPTGHKLASLGDTASPLVKSVSCDGALSSCIESASKDSSVSCIKSGPKEQKSMSCEESNIGAISKSSMELPSKSFLKMRKHPDSVNASLRSTTVYKQKILSDGQVKVPLDDLTNHDIVKPVVNNNMGISSGINNRVLRRPSERGRAWYKGSPKHPIGKTQLLPTSKPVDL [ARHGAP11A]
solubility change mitosis (log2) (HeLa Kyoto [1]): -0.288 | solubility in G1/S (log2) (HeLa Kyoto [2]): -0.915 | thermal stability score (HeLa Kyoto [3]; [4]): -0.137 | thermal stability score (HeLa Kyoto [3]; cell cycle stage: mitosis): -0.131

NHS
solubility change mitosis (log2) (HeLa Kyoto [1]): -0.00515 | solubility in G1/S (log2) (HeLa Kyoto [2]): -0.153 | thermal stability score (HeLa Kyoto [3]; [4]): 0.656 | thermal stability score (HeLa Kyoto [3]; cell cycle stage: mitosis): 0.325

MDLHRAAFKMENSSYLPNPLASPALMVLASTAEASRDASIPCQQPRPFGVPVSVDKDVHIPFTNGSYTFASMYHRQGGVPGTFANRDFPPSLLHLHPQFAPPNLDCTPISMLNHSGVGAFRPFASTEDRESYQSAFTPAKRLKNCHDTESPHLRFSDADGKEYDFGTQLPSSSPGSLKVDDTGKKIFAVSGLISDREASSSPEDRNDRCKKKAAALFDSQAPICPICQVLLRPSELQEHMEQELEQLAQLPSSKNSLLKDAMAPGTPKSLLLSASIKREGESPTASPHSSATDDLHHSDRYQTFLRVRANRQTRLNARIGKMKRRKQDEGQREGSCMAEDDAVDIEHENNNRFEEYEWCGQKRIRATTLLEGGFRGSGFIMCSGKENPDSDADLDVDGDDTLEYGKPQYTEADVIPCTGEEPGEAKEREALRGAVLNGGPPSTRITPEFSKWASDEMPSTSNGESSKQEAMQKTCKNSDIEKITEDSAVTTFEALKARVRELERQLSRGDRYKCLICMDSYSMPLTSIQCWHVHCEECWLRTLGAKKLCPQCNTITAPGDLRRIYL [RNF220]
solubility change mitosis (log2) (HeLa Kyoto [1]): -0.0624 | solubility in G1/S (log2) (HeLa Kyoto [2]): 0.298 | thermal stability score (HeLa Kyoto [3]; [4]): 0.0151 | thermal stability score (HeLa Kyoto [3]; cell cycle stage: mitosis): -0.144

SACS
solubility change mitosis (log2) (HeLa Kyoto [1]): -0.045 | solubility in G1/S (log2) (HeLa Kyoto [2]): -0.294 | thermal stability score (HeLa Kyoto [3]; [4]): -0.0387 | thermal stability score (HeLa Kyoto [3]; cell cycle stage: mitosis): -0.338
